B1: Cytochrome b5, P00171 (parent)
chain: MAEESSKAVKYYTLEEIQKHNNSKSTWLILHYKVYDLTKFLEEHPGGEEVLREQAGGDATENFEDVGHSTDARELSKTFIIGELHPDDRSKITKPSESIITTIDSNPSWWTNWLIPAISALFVALIYHLYTSEN

Variants of: B1
Conditions: Bos taurus, pH 7, 25 °C, CD, MOPS 30 mM, reversible: yes (partial), structure 1CYO, whole UniProt chain shown

Variant | ddG of mutation (higher = less stable) (GdnHCl) [kcal/mol] | denaturant midpoint (higher = more stable) (GdnHCl) [M] | unfolding free energy (GdnHCl) [kcal/mol] | denaturant midpoint (higher = more stable) (GdnSCN) [M]
MAEESSKAVKYYTLEEIQKHNNSKSTWLILHYKVYDITKFLEEHPGGEEVLREQAGGDATENFEDVGHSTDARELLKTFIIGELHPDDRSKITKPSESIITTIDSNPSWWTNWLIPAISALFVALIYHLYTSEN [S76L L37I] | -0.5 | 1.9 | 3.5 | 1.8
MAEESSKAVKYYTLEEIQKHNNSKSTWLILHYKVYDLTKFLEEHPGGEEVLREQAGGDATENFEDVGHSTDARELLKTFIIGELHPDDRSKITKPSESIITTIDSNPSWWTNWLIPAISALFVALIYHLYTSEN [S76L] | -0.8 | 2.3 | 3.8 | 1.59

From FireProtDB (doi:10.1093/protein/gzi067)
